Experimental data as given in the supplement of paper PMC9170038.

System: K4 kissing-loop RNA reporter
Test: apparent KD of K4 kissing-loop reporter; higher = weaker reporter binding
Conditions: Eterna round: R107
Method: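 RNA-MaP round R107: designed RNA switches with theophylline, tryptophan, arginine or FMN aptamers are transcribed on-chip within common flanks. They are titrated with a labelled K4 kissing-loop RNA reporter in RNA-MaP buffer (100 mM Tris pH 7.5, 80 mM KCl, 4 mM MgCl2), without ligand or with the indicated ligand. Median apparent KD per design.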

[1] = input ligand: theophylline 20 uM
[2] = input ligand: tryptophan 2.4 mM
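Also: bound reporter read as fluorescence of individual clusters on recovered sequencing chips by microscopy, with normalized cluster intensities fitted with a binding model.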

GUAGAUAGGCUACAUCUCUAGUCUAAAGACUAGGAUAUCAGGAAACUGAGAAGGAGUCUCAUUGGAGUGAUGUUCCAAGAAUAAU [KL-SSFMN-A16]
apparent KD of K4 kissing-loop reporter (input ligand: FMN 200 uM): 0.1 µM
apparent KD of K4 kissing-loop reporter (input ligand: arginine 13.2 mM): 0.106 µM
apparent KD of K4 kissing-loop reporter (input ligand: none): 0.0892 µM
apparent KD of K4 kissing-loop reporter [1]: 0.109 µM
apparent KD of K4 kissing-loop reporter [2]: 0.0717 µM

UGAUAGGACAGAAGGAGCGGUAGUGAUGUUACCAAAAGGUUAAGGUGUCAAAAGACACCCUACCAGGUAGGUCGCUGUCCUAUCU
apparent KD of K4 kissing-loop reporter (input ligand: FMN 200 uM): 0.152 µM
apparent KD of K4 kissing-loop reporter (input ligand: arginine 13.2 mM): 0.164 µM
apparent KD of K4 kissing-loop reporter (input ligand: none): 0.161 µM
apparent KD of K4 kissing-loop reporter [1]: 0.126 µM
apparent KD of K4 kissing-loop reporter [2]: 0.136 µM

UGACAUUGCUCAGAUACCAGACAUGAGCAUCAGCCAUGUGCCAAAACGUACUAAAUAAAUGUCCCUUGGCAGCUGAGCAAUGUCU [TheoBX 13]
apparent KD of K4 kissing-loop reporter (input ligand: FMN 200 uM): 0.065 µM
apparent KD of K4 kissing-loop reporter (input ligand: arginine 13.2 mM): 0.0263 µM
apparent KD of K4 kissing-loop reporter (input ligand: none): 0.0407 µM
apparent KD of K4 kissing-loop reporter [1]: 0.0733 µM
apparent KD of K4 kissing-loop reporter [2]: 0.0613 µM

CUUGAUCGAGGAAGGAGCGGGCCGUCAUUGAGCGCAGUGAUGUUGCGUUCGACUAGUCGAGCCCAGGUAGGUCGCCUGGAGUAAG [Lazalaa]
apparent KD of K4 kissing-loop reporter (input ligand: FMN 200 uM): 0.0849 µM
apparent KD of K4 kissing-loop reporter (input ligand: arginine 13.2 mM): 0.0761 µM
apparent KD of K4 kissing-loop reporter (input ligand: none): 0.0982 µM
apparent KD of K4 kissing-loop reporter [1]: 0.0782 µM
apparent KD of K4 kissing-loop reporter [2]: 0.0908 µM

CCUUUCUGUUACGAUACCAGUCUAAUAUAUUUGAUCAAUACCCUCGCCGAGUGAUGUUCGGACCCUUGGCAGCGUCUGGGACAGG [aazwmullin]
apparent KD of K4 kissing-loop reporter (input ligand: FMN 200 uM): 0.482 µM
apparent KD of K4 kissing-loop reporter (input ligand: arginine 13.2 mM): 0.438 µM
apparent KD of K4 kissing-loop reporter (input ligand: none): 0.493 µM
apparent KD of K4 kissing-loop reporter [1]: 0.468 µM
apparent KD of K4 kissing-loop reporter [2]: 0.451 µM

CAGAUGUAGGCGGCCGCCACUCUCAUUACCGUACGCAAGUAUGAUUAGAAGUGAUGUUUCUCGGUGAGGACCGGGCCAUUCCCGA [theeternabot_sameState_KL_Trp_B_27]
apparent KD of K4 kissing-loop reporter (input ligand: FMN 200 uM): 0.69 µM
apparent KD of K4 kissing-loop reporter (input ligand: arginine 13.2 mM): 0.551 µM
apparent KD of K4 kissing-loop reporter (input ligand: none): 0.67 µM
apparent KD of K4 kissing-loop reporter [1]: 0.672 µM
apparent KD of K4 kissing-loop reporter [2]: 0.545 µM

UGACAUUGCUCAGAUACCAGACAUGAGCAUCAGCCAUGUACCAAGAAAGUACAAUAAAAUGUCCCUUGGCAGCUGAGCAAUGUCU [TheoBX 8]
apparent KD of K4 kissing-loop reporter (input ligand: FMN 200 uM): 0.0561 µM
apparent KD of K4 kissing-loop reporter (input ligand: arginine 13.2 mM): 0.0256 µM
apparent KD of K4 kissing-loop reporter (input ligand: none): 0.0478 µM
apparent KD of K4 kissing-loop reporter [1]: 0.121 µM
apparent KD of K4 kissing-loop reporter [2]: 0.0484 µM

UUGUAUAGUGGAAGGAGCGCGUGGGCGCAGUGAUGUUGCGCCCGACAUCACUUCAACUUAACGCAGGUAGGUCGCCAUUGUAAUG [Arginine B (Excl) V5]
apparent KD of K4 kissing-loop reporter (input ligand: FMN 200 uM): 0.131 µM
apparent KD of K4 kissing-loop reporter (input ligand: arginine 13.2 mM): 0.088 µM
apparent KD of K4 kissing-loop reporter (input ligand: none): 0.113 µM
apparent KD of K4 kissing-loop reporter [1]: 0.104 µM
apparent KD of K4 kissing-loop reporter [2]: 0.101 µM

UGUCAUUGGUCGGCCGCCACUUUAUAUGGAGUGAUGUUUUGUAAAUUGUGUUGAAAGGUGUGGUAAAGGACCGGGACCGAUGACU [FiskerMod 26 - Jieux - Same State - Tryptophan B]
apparent KD of K4 kissing-loop reporter (input ligand: FMN 200 uM): 1.03 µM
apparent KD of K4 kissing-loop reporter (input ligand: arginine 13.2 mM): 0.637 µM
apparent KD of K4 kissing-loop reporter (input ligand: none): 0.931 µM
apparent KD of K4 kissing-loop reporter [1]: 0.727 µM
apparent KD of K4 kissing-loop reporter [2]: 0.651 µM

UGAUAGGACAGAAGGAGCGGGAGUGAUGUUCCCAAAAGGGUAAGGUGUCAAAAGACACCCUUCCAGGUAGGUCGCUGUCCUAUCU
apparent KD of K4 kissing-loop reporter (input ligand: FMN 200 uM): 0.0977 µM
apparent KD of K4 kissing-loop reporter (input ligand: arginine 13.2 mM): 0.105 µM
apparent KD of K4 kissing-loop reporter (input ligand: none): 0.0975 µM
apparent KD of K4 kissing-loop reporter [1]: 0.102 µM
apparent KD of K4 kissing-loop reporter [2]: 0.0839 µM

CGCAGUGAUGUUGUGAUUAACUACAGGGAAGGAGCGUGCUAGAGCACAGGUAGGUCGCCCAGUGGCCGAGUGAUGUUCGGCGGGU [Same State Arginine A GF 27]
apparent KD of K4 kissing-loop reporter (input ligand: FMN 200 uM): 0.237 µM
apparent KD of K4 kissing-loop reporter (input ligand: arginine 13.2 mM): 0.189 µM
apparent KD of K4 kissing-loop reporter (input ligand: none): 0.227 µM
apparent KD of K4 kissing-loop reporter [1]: 0.25 µM
apparent KD of K4 kissing-loop reporter [2]: 0.188 µM

GCCAGUGCACGAAGGAGCGCCGUGACAGGUUACUGCCUUGGGCAGUGAUGUUGCUCAAUCUGGCAGGUAGGUCGCGUGCACUGGC
apparent KD of K4 kissing-loop reporter (input ligand: FMN 200 uM): 0.169 µM
apparent KD of K4 kissing-loop reporter (input ligand: arginine 13.2 mM): 0.147 µM
apparent KD of K4 kissing-loop reporter (input ligand: none): 0.17 µM
apparent KD of K4 kissing-loop reporter [1]: 0.175 µM
apparent KD of K4 kissing-loop reporter [2]: 0.177 µM

ACACUUACACAUGAUACCAGAAUUCUACCGUAAAUAGUAAGUGAUGUUUGCUAACGGCUUUUCCCUUGGCAGCAUGAUCGGUAUU [theeternabot_sameState_KL_Theo_B_43]
apparent KD of K4 kissing-loop reporter (input ligand: FMN 200 uM): 0.201 µM
apparent KD of K4 kissing-loop reporter (input ligand: arginine 13.2 mM): 0.121 µM
apparent KD of K4 kissing-loop reporter (input ligand: none): 0.178 µM
apparent KD of K4 kissing-loop reporter [1]: 0.242 µM
apparent KD of K4 kissing-loop reporter [2]: 0.149 µM

UGUCAUUGGUCGGCCGCCACUUGAAGGUCAAAGACCAUAGAGUGAUGUUCUAAGACGAAAGUCACAAGGACCGGGACCGAUGACU [TrypBS 3 #SwitchBubble #K4Middle]
apparent KD of K4 kissing-loop reporter (input ligand: FMN 200 uM): 0.361 µM
apparent KD of K4 kissing-loop reporter (input ligand: arginine 13.2 mM): 0.134 µM
apparent KD of K4 kissing-loop reporter (input ligand: none): 0.133 µM
apparent KD of K4 kissing-loop reporter [1]: 0.265 µM
apparent KD of K4 kissing-loop reporter [2]: 0.607 µM

AAUUUUAAUAAUAAAUAAUAAAUAAAUGAUACCAGUAUUUUUUUUUACCCUUGGCAGCGUAUAUAAGGGCAGUGAUGUUGUCAAA [whbob_SS_Theo_A_w58]
apparent KD of K4 kissing-loop reporter (input ligand: FMN 200 uM): 0.205 µM
apparent KD of K4 kissing-loop reporter (input ligand: arginine 13.2 mM): 0.136 µM
apparent KD of K4 kissing-loop reporter (input ligand: none): 0.153 µM
apparent KD of K4 kissing-loop reporter [1]: 0.196 µM
apparent KD of K4 kissing-loop reporter [2]: 0.169 µM

GCUAUAGUGUUAGAUACCAGUAUCCUGCAAAGCCAUCAAAUGCAGUGAUGUUGCAUAAACUACCCUUGGCAGCUAAUUGGGCUCU [theeternabot_exclusion_KL_Theo_B_49]
apparent KD of K4 kissing-loop reporter (input ligand: FMN 200 uM): 0.226 µM
apparent KD of K4 kissing-loop reporter (input ligand: arginine 13.2 mM): 0.201 µM
apparent KD of K4 kissing-loop reporter (input ligand: none): 0.213 µM
apparent KD of K4 kissing-loop reporter [1]: 0.213 µM
apparent KD of K4 kissing-loop reporter [2]: 0.187 µM

UUUUGGUACUGAGGAUAUUCGACGAAAUAUAGUGAUGUUAUAUAAGGAGGAGGAGGGUGGGAGGAAGGAGAAGGCAGAAGAGGAG [#06 K4 FMN B Exclusion]
apparent KD of K4 kissing-loop reporter (input ligand: FMN 200 uM): 0.285 µM
apparent KD of K4 kissing-loop reporter (input ligand: arginine 13.2 mM): 0.179 µM
apparent KD of K4 kissing-loop reporter (input ligand: none): 0.238 µM
apparent KD of K4 kissing-loop reporter [1]: 0.285 µM
apparent KD of K4 kissing-loop reporter [2]: 0.185 µM

GUAGACGUACCUUCAGUGAUGUUGAAGGAUACCAGAUGUUACCACAUCCCUUGGCAGCCUUGGGAUAACAGUGAGUUGGAAUAUG [Usrite]
apparent KD of K4 kissing-loop reporter (input ligand: FMN 200 uM): 0.182 µM
apparent KD of K4 kissing-loop reporter (input ligand: arginine 13.2 mM): 0.137 µM
apparent KD of K4 kissing-loop reporter (input ligand: none): 0.172 µM
apparent KD of K4 kissing-loop reporter [1]: 0.156 µM
apparent KD of K4 kissing-loop reporter [2]: 0.15 µM

GAGGUAUGCGCAGUGAUGUUGCGACGAGAUACCAGUCGUUCUGUCGACCCUUGGCAGCUCCCACCAGACGUACGAGUUUGUGUUG [theeternabot_sameState_KL_Theo_A_10]
apparent KD of K4 kissing-loop reporter (input ligand: FMN 200 uM): 0.114 µM
apparent KD of K4 kissing-loop reporter (input ligand: arginine 13.2 mM): 0.111 µM
apparent KD of K4 kissing-loop reporter (input ligand: none): 0.113 µM
apparent KD of K4 kissing-loop reporter [1]: 0.113 µM
apparent KD of K4 kissing-loop reporter [2]: 0.0995 µM

AGCCGAAAGGCGAGUGCUGUCACUCCGGAAGGAGCGGCGAAAACGCCAGGUAGGUCGCCGGAGUGAUGUUCCGGUGCAGCACUCA [Omei KL Arginine A Exc B v2]
apparent KD of K4 kissing-loop reporter (input ligand: FMN 200 uM): 0.603 µM
apparent KD of K4 kissing-loop reporter (input ligand: arginine 13.2 mM): 0.41 µM
apparent KD of K4 kissing-loop reporter (input ligand: none): 0.932 µM
apparent KD of K4 kissing-loop reporter [1]: 0.521 µM
apparent KD of K4 kissing-loop reporter [2]: 0.492 µM

CCGUGGAGUGAUGUUCCACGUACUACGGAUACCAGCUUUGCCAAAGGCCCUUGGCAGCCGCACGUUGCAGUGAUGUUGUGGCGCG [Same State Theophylline A G9]
apparent KD of K4 kissing-loop reporter (input ligand: FMN 200 uM): 0.345 µM
apparent KD of K4 kissing-loop reporter (input ligand: arginine 13.2 mM): 0.241 µM
apparent KD of K4 kissing-loop reporter (input ligand: none): 0.327 µM
apparent KD of K4 kissing-loop reporter [1]: 0.328 µM
apparent KD of K4 kissing-loop reporter [2]: 0.299 µM
